# Measurements from US6905854B2, “Mutated penicillin expandase and process for preparing 7-ADCA using the same” (Synmax Biochemical Co., Ltd., priority 2002, dated 2005).
# B1: YS125: mutated DAOCS with substitution N304L as disclosed in Chin H. S. et al (protein, UniProt P18548 1-311, looked up, variant N304L)
# Deacetoxycephalosporin C …: MDTTVPTFSLAELQQGLHQDEFRRCLRDKGLFYLTDCGLTDTELKSAKDLVIDFFEHGSEAEKRAVTSPVPTMRRGFTGLESESTAQITNTGSYSDYSMCYSMGTADNLFPSGDFERIWTQYFDRQYTASRAVAREVLRATGTEPDGGVEAFLDCEPLLRFRYFPQVPEHRSAEEQPLRMAPHYDLSMVTLIQQTPCANGFVSLQAEVGGAFTDLPYRPDAVLVFCGAIATLVTGGQVKAPRHHVAAPRRDQIAGSSRTSSVFFLRPNADFTFSVPLARECGFDVSLDGETATFQDWIGGNYVLIRRTSKA
# B2: YS115: mutated penicillin expandase (DAOCS) with substitution M73T (protein, UniProt P18548 1-311, looked up, variant M73T)
# Deacetoxycephalosporin C …: MDTTVPTFSLAELQQGLHQDEFRRCLRDKGLFYLTDCGLTDTELKSAKDLVIDFFEHGSEAEKRAVTSPVPTTRRGFTGLESESTAQITNTGSYSDYSMCYSMGTADNLFPSGDFERIWTQYFDRQYTASRAVAREVLRATGTEPDGGVEAFLDCEPLLRFRYFPQVPEHRSAEEQPLRMAPHYDLSMVTLIQQTPCANGFVSLQAEVGGAFTDLPYRPDAVLVFCGAIATLVTGGQVKAPRHHVAAPRRDQIAGSSRTSSVFFLRPNADFTFSVPLARECGFDVSLDGETATFQDWIGGNYVNIRRTSKA
# B3: YS53: mutated penicillin expandase (DAOCS) with substitution C281Y (protein, UniProt P18548 1-311, looked up, variant C281Y)
# Deacetoxycephalosporin C …: MDTTVPTFSLAELQQGLHQDEFRRCLRDKGLFYLTDCGLTDTELKSAKDLVIDFFEHGSEAEKRAVTSPVPTMRRGFTGLESESTAQITNTGSYSDYSMCYSMGTADNLFPSGDFERIWTQYFDRQYTASRAVAREVLRATGTEPDGGVEAFLDCEPLLRFRYFPQVPEHRSAEEQPLRMAPHYDLSMVTLIQQTPCANGFVSLQAEVGGAFTDLPYRPDAVLVFCGAIATLVTGGQVKAPRHHVAAPRRDQIAGSSRTSSVFFLRPNADFTFSVPLAREYGFDVSLDGETATFQDWIGGNYVNIRRTSKA
# B4: YS59: mutated penicillin expandase (DAOCS) with substitution G79E (protein, UniProt P18548 1-311, looked up, variant G79E)
# Deacetoxycephalosporin C …: MDTTVPTFSLAELQQGLHQDEFRRCLRDKGLFYLTDCGLTDTELKSAKDLVIDFFEHGSEAEKRAVTSPVPTMRRGFTELESESTAQITNTGSYSDYSMCYSMGTADNLFPSGDFERIWTQYFDRQYTASRAVAREVLRATGTEPDGGVEAFLDCEPLLRFRYFPQVPEHRSAEEQPLRMAPHYDLSMVTLIQQTPCANGFVSLQAEVGGAFTDLPYRPDAVLVFCGAIATLVTGGQVKAPRHHVAAPRRDQIAGSSRTSSVFFLRPNADFTFSVPLARECGFDVSLDGETATFQDWIGGNYVNIRRTSKA
# B5: YS5: mutated penicillin expandase (DAOCS) with substitution V275I (protein, UniProt P18548 1-311, looked up, variant V275I)
# Deacetoxycephalosporin C …: MDTTVPTFSLAELQQGLHQDEFRRCLRDKGLFYLTDCGLTDTELKSAKDLVIDFFEHGSEAEKRAVTSPVPTMRRGFTGLESESTAQITNTGSYSDYSMCYSMGTADNLFPSGDFERIWTQYFDRQYTASRAVAREVLRATGTEPDGGVEAFLDCEPLLRFRYFPQVPEHRSAEEQPLRMAPHYDLSMVTLIQQTPCANGFVSLQAEVGGAFTDLPYRPDAVLVFCGAIATLVTGGQVKAPRHHVAAPRRDQIAGSSRTSSVFFLRPNADFTFSIPLARECGFDVSLDGETATFQDWIGGNYVNIRRTSKA
# Assays:
# [1] = Kinetic assay of purified DAOCS with penicillin N as main substrate; type: biochemical; settings: for penicillin N, 0.5 μg purified DAOCS, 30° C., 10 minutes; for Km: triplicate, Hanes-Woolf Plot
# Protocol: (§1) The cell extract (2 ml) of a candidate mutant was applied onto a HiTrap Q column (5 ml) pre-equilibrated with buffer B (50 mM Mops/pH 7.5, 1 mM DTT, 0.4 mM pefabloc SC, and 0.5 μg/ml leupeptin). Then, the column was washed with 20 ml of buffer B, followed by a further wash with 25 ml of buffer B containing 120 mM NaCl, and DAOCS was eluted off with 20 ml of buffer B containing 150 mM NaCl. The DAOCS containing fractions were pooled (10 ml), concentrated by UF 15 device (NMWL 5K; Millipore), and loaded onto a Hiload Superdex 75 (16/60) column pre-equilibrated with buffer B at a flow rate of 1 ml/min.
# (§2) The standard penicillin G assay was followed for kinetic assay, but 20 μg of purified DAOCS was used and the concentration of α-ketoglutarate was reduced to 1 mM. Kinetic parameters were obtained from triplicate experiments by Hanes-Woolf Plot. For assays using penicillin N as a main substrate, a total volume of 240 μl reaction containing 50 mM Hepes/pH 7.5, 0.4 mM ascorbate, 0.1 mM FeSO4, 0.1 mM α-ketoglutarate, 0.1 mM penicillin N and 0.5 μg of purified DAOCS was incubated at 30° C. for 10 minutes, then the same volume of 10 mM EDTA/pH 7.5 was added, and the mixture was subjected to ultrafiltration with UF 0.5 device (NMWL 5000, Millipore). The filtrate was analyzed by HPLC using 25 mM potassium phosphate/pH 6.5 as a mobile phase. The retention time of DAOC and penicillin N was 12 minutes and 13.5 minutes, respectively The results of kinetic parameters are shown in Table 1, wherein the definition and calculation of the parameters are described in Lehninger et al. Principles of Biochemistry, 2nd Ed. Worth Publishers, New York (1993) which is incorporated herein for reference.
# [2] = Kinetic assay of purified DAOCS with penicillin G (standard penicillin G assay, HPLC of cephalosporin G); type: biochemical; settings: for penicillin G, 20 μg purified DAOCS, 1 mM α-ketoglutarate, 30° C.; for Km: triplicate, Hanes-Woolf Plot
# Protocol: For penicillin G, 20 μl of cell extracts was added into a standard 200 μl assay reaction containing 50 mM Mops/pH 7.5, 4 mM ascorbate, 1 mM FeSO4, 4 mM α-ketoglutarate and 7 mM penicillin G, and incubated at 30° C. for 20 minutes. The reaction was stopped by addition of 200 μl of ethanol, followed by a centrifugation at 15,000×g for 5 minutes. The concentration of cephalosporin G in supernatant was analyzed by HPLC with 40 μl injection. The mobile phase was 25 mM potassium phosphate/pH 6.5 with 19% acetonitrile at a flow rate of 1 ml/min. The retention time for cephalosporin G was 8.5 minutes and 12.5 minutes for penicillin G with detection at 215 nm, and the product at 8.5 minutes in DAOCS reaction was confirmed by ESI-LC/MS (positive): [M+H]^+=333. […] The different combinations of the mutated amino acids mentioned above were also constructed by site-directed mutagenesis.
# as §1, §2
Molecule,kcat [1] [S^−1],Km [1] [µM],kcat [2] [S^−1],Km [2] [µM]
B1,0.415 ± 0.063,18 ± 4,0.0402 ± 0.0006,550 ± 120
B2,0.239 ± 0.009,6 ± 3,0.0627 ± 0.0021,740 ± 160
B3,0.273 ± 0.014,6 ± 1,0.0744 ± 0.0033,680 ± 340
B4,0.178 ± 0.019,9 ± 3,0.0315 ± 0.0003,750 ± 20
B5,0.252 ± 0.020,12 ± 3,0.0502 ± 0.0012,1680 ± 200
